No end group written: not given here.
T1: His-tagged P3028 (human, also: His-tag, terminus and sequence not given here)
T1 construct: in solution at 0.5 ug/mL over the peptide cards; found with anti-His-tag antibody and rabbit anti-mouse peroxidase (rampo); also called PGE73; not shown: His-tag
T1 peptide: VFDEFKPLVEEPQNLIK


Biological target: T1, His-tagged P3028
Experiment: PEPSCAN chip ELISA, His-P3028 in solution;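 also: score is the raw OD at 405 nm from peroxidase colour with ABTS, imaged by CCD camera before and after staining, with wells showing air bubbles set to zero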
Method: After washing, the peroxidase substrate 2,2′-azine-di-3-ethylbenzthiazoline sulfonate (ABTS) and 2 μL of 3% H2O2 were added. The binding capacity of the mAb was measured as a color development at 405 nm (optical density, OD405). The color development was quantified with a charge-coupled device (CCD)—camera and an image processing system.
The OD405-values obtained by a CCD-camera was considered as raw data values (“rampo values,” “rampo units,” or “rampo scores”). […] First the CCD-camera made a picture of the card before peroxidase coloring and then again a picture after the peroxidase coloring. […] These values were copied into an excel file and labeled as a raw data file. One follow-up manipulation was allowed. Sometimes a well can contain an air-bubble resulting in a false-positive value. If manual inspection of the cards detect an air-bubble the value are set to 0 for that well.

Binder | RAMPO Score
KKLDTFFVKLSLFTYR [SEQ ID NO 459] | 340 rampo score
KKLDTFFVKCSLFTER [SEQ ID NO 508] | 283 rampo score
KKLDTFFAKLSLFTER [SEQ ID NO 495] | 299 rampo score
KKLDTFFVKLPLFTER [SEQ ID NO 470] | 328 rampo score
WKLDTFFVKLSLFTER [SEQ ID NO 507] | 284 rampo score
KKLDTFFVKLSLFAER [SEQ ID NO 489] | 305 rampo score
KKLDTKFVKLSLFTER [SEQ ID NO 460] | 337 rampo score
KKLDLFFVKLSLFTER [SEQ ID NO 484] | 311 rampo score
KKLDTFFVKLILFTER [SEQ ID NO 505] | 289 rampo score
KKLDTFFVKLWLFTER [SEQ ID NO 472] | 324 rampo score
KILDTFFVKLSLFTER [SEQ ID NO 467] | 331 rampo score
KKLDTHFVKLSLFTER [SEQ ID NO 466] | 332 rampo score
KKLNTFFVKLSLFTER [SEQ ID NO 498] | 296 rampo score
KKLLTFFVKLSLFTER [SEQ ID NO 491] | 303 rampo score
KKLDIFFVKLSLFTER [SEQ ID NO 501] | 293 rampo score
KKLHTFFVKLSLFTER [SEQ ID NO 479] | 317 rampo score
KKLKTFFVKLSLFTER [SEQ ID NO 512] | 274 rampo score
KKLDTFFVKLSLFQER [SEQ ID NO 493] | 301 rampo score
KKLDTFFTKLSLFTER [SEQ ID NO 496] | 298 rampo score
KKLDTFFVKLKLFTER [SEQ ID NO 473] | 323 rampo score
KKLDTFFVKLSLYTER [SEQ ID NO 503] | 291 rampo score
KKLDTCFVKLSLFTER [SEQ ID NO 462] | 335 rampo score
KWLDTFFVKLSLFTER [SEQ ID NO 490] | 304 rampo score
KKLDTFFVKLRLFTER [SEQ ID NO 464] | 333 rampo score
KSLDTFFVKLSLFTER [SEQ ID NO 510] | 281 rampo score
KKLDTFDVKLSLFTER [SEQ ID NO 492] | 301 rampo score

Binder | RAMPO Score
KKLDTFFVKLSLFTKR [SEQ ID NO 471] | 324 rampo score
KKLDTFFVQLSLFTER [SEQ ID NO 469] | 330 rampo score
KKLRTFFVKLSLFTER [SEQ ID NO 480] | 317 rampo score
KKLDFFFVKLSLFTER [SEQ ID NO 504] | 290 rampo score
KKLDTFFVKKSLFTER [SEQ ID NO 506] | 285 rampo score
KTLDTFFVKLSLFTER [SEQ ID NO 468] | 331 rampo score
KKLDDFFVKLSLFTER [SEQ ID NO 500] | 295 rampo score
KALDTFFVKLSLFTER [SEQ ID NO 485] | 309 rampo score
KKLDTFFVKLSYFTER [SEQ ID NO 475] | 320 rampo score
KKLDTFFVMLSLFTER [SEQ ID NO 509] | 283 rampo score
KKLDTFFVSLSLFTER [SEQ ID NO 511] | 274 rampo score
KCLDTFFVKLSLFTER [SEQ ID NO 499] | 295 rampo score
KKLDTFFVKHSLFTER [SEQ ID NO 502] | 293 rampo score
KKLDTFFVHLSLFTER [SEQ ID NO 488] | 306 rampo score
KKLDTFFVKWSLFTER [SEQ ID NO 482] | 316 rampo score
YKLDTFFVKLSLFTER [SEQ ID NO 483] | 315 rampo score
KKLDTFFVKLALFTER [SEQ ID NO 477] | 318 rampo score
KKLDTFFVKLSLFTHR [SEQ ID NO 478] | 318 rampo score
KKLDTFFVKLSPFTER [SEQ ID NO 497] | 297 rampo score
KKLDTRFVKLSLFTER [SEQ ID NO 486] | 309 rampo score
KVLDTFFVKLSLFTER [SEQ ID NO 481] | 317 rampo score
KKLDTFYVKLSLFTER [SEQ ID NO 463] | 334 rampo score
KDLDTFFVKLSLFTER [SEQ ID NO 461] | 335 rampo score
KYLDTFFVKLSLFTER [SEQ ID NO 494] | 301 rampo score
FKLDTFFVKLSLFTER [SEQ ID NO 465] | 332 rampo score
KKLDTFFVKLDLFTER [SEQ ID NO 474] | 322 rampo score

From patent US20170298096A1 (CANIMGUIDE THERAPEUTICS, published 2017)
